These results are taken from US20230416330A1, “Optimized GIP Peptide Analogues” (Antag Therapeutics ApS, priority 2019, published 2023).

Starred links: 1 amine or outer side, 2 acyl side, 3 side chain; linkers in the order of their positions; H or OH if unused. Non-standard residues stand in square brackets, D forms with d. Groups on a side chain read outwards from the residue. No end group written: not given here. *: point of attachment. C18 diacid = O=C(O)CCCCCCCCCCCCCCCCC(=O)*; γGlu = O=C(O)[C@H](CCC(=O)[*:2])N[*:1]; Glutaryl = O=C(CCCC(=O)[*:2])[*:1]; AEEA = NCCOCCOCC(=O)O; Aib = CC(C)(N)C(=O)O

For the assay, the target named is T1, human GIP receptor (human, UniProt P48546 22-466).
T1 sequence (looked up): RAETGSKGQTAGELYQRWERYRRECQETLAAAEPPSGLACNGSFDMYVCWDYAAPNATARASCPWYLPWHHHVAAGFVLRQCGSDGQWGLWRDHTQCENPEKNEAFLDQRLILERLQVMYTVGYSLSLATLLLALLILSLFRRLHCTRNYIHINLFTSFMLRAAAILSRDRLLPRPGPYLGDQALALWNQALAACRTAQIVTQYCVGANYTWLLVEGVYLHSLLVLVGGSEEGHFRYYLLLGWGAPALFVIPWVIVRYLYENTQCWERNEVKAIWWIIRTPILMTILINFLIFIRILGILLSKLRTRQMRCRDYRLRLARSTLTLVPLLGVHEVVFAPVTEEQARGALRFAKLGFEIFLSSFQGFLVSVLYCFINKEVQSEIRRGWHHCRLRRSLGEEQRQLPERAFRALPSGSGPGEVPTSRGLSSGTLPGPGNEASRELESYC
Put plainly: cell-based or functional assay.

B1: AT708 (peptide)
peptide: Glutaryl-GTFISEYSI[Aib]MEKIK([AEEA-AEEA-γGlu-C18 diacid])QQEFVEWLLAQKPSSGAPPPS-OH
SMILES: CC[C@H](C)[C@H](NC(=O)[C@H](CCCCN)NC(=O)[C@H](CCC(=O)O)NC(=O)[C@H](CCSC)NC(=O)C(C)(C)NC(=O)[C@@H](NC(=O)[C@H](CO)NC(=O)[C@H](Cc1ccc(O)cc1)NC(=O)[C@H](CCC(=O)O)NC(=O)[C@H](CO)NC(=O)[C@@H](NC(=O)[C@H](Cc1ccccc1)NC(=O)[C@@H](NC(=O)CNC(=O)CCCC(=O)O)[C@@H](C)O)[C@@H](C)CC)[C@@H](C)CC)C(=O)N[C@@H](CCCCNC(=O)COCCOCCNC(=O)COCCOCCNC(=O)CC[C@H](NC(=O)CCCCCCCCCCCCCCCCC(=O)O)C(=O)O)C(=O)N[C@@H](CCC(N)=O)C(=O)N[C@@H](CCC(N)=O)C(=O)N[C@@H](CCC(=O)O)C(=O)N[C@@H](Cc1ccccc1)C(=O)N[C@H](C(=O)N[C@@H](CCC(=O)O)C(=O)N[C@@H](Cc1c[nH]c2ccccc12)C(=O)N[C@@H](CC(C)C)C(=O)N[C@@H](CC(C)C)C(=O)N[C@@H](C)C(=O)N[C@@H](CCC(N)=O)C(=O)N[C@@H](CCCCN)C(=O)N1CCC[C@H]1C(=O)N[C@@H](CO)C(=O)N[C@@H](CO)C(=O)NCC(=O)N[C@@H](C)C(=O)N1CCC[C@H]1C(=O)N1CCC[C@H]1C(=O)N1CCC[C@H]1C(=O)N[C@@H](CO)C(=O)O)C(C)C
For B1, the “nM (Kb, Gaddum assay, cAMP)” value came to 0.2 nM and the “pKb (Gaddum assay, cAMP)” value stood at 9.7.
For EGTFISEYSIAMEKIK([AEEA-AEEA-γGlu-C18 diacid])QQEFVEWLLAQKPSSGAPPPS-OH [AT710] the same measures were 0.73 nM and 9.1.
As for EGTFISEYSI[Aib]MEKIK([AEEA-AEEA-γGlu-C18 diacid])QQEFVEWLLAQKPSSGAPPPS-OH [AT709], the “nM (Kb, Gaddum assay, cAMP)” value is 0.24 nM and the “pKb (Gaddum assay, cAMP)” value came to 9.6.

B2: AT712 (peptide)
peptide: EGTFISEYSI[Aib]LDKIK([AEEA-AEEA-γGlu-C18 diacid])QQDFVEWLLAQKPSSGAPPPS-OH
modifications: N-terminus assumed
SMILES: CC[C@H](C)[C@H](NC(=O)[C@H](CCCCN)NC(=O)[C@H](CC(=O)O)NC(=O)[C@H](CC(C)C)NC(=O)C(C)(C)NC(=O)[C@@H](NC(=O)[C@H](CO)NC(=O)[C@H](Cc1ccc(O)cc1)NC(=O)[C@H](CCC(=O)O)NC(=O)[C@H](CO)NC(=O)[C@@H](NC(=O)[C@H](Cc1ccccc1)NC(=O)[C@@H](NC(=O)CNC(=O)[C@@H](N)CCC(=O)O)[C@@H](C)O)[C@@H](C)CC)[C@@H](C)CC)C(=O)N[C@@H](CCCCNC(=O)COCCOCCNC(=O)COCCOCCNC(=O)CC[C@H](NC(=O)CCCCCCCCCCCCCCCCC(=O)O)C(=O)O)C(=O)N[C@@H](CCC(N)=O)C(=O)N[C@@H](CCC(N)=O)C(=O)N[C@@H](CC(=O)O)C(=O)N[C@@H](Cc1ccccc1)C(=O)N[C@H](C(=O)N[C@@H](CCC(=O)O)C(=O)N[C@@H](Cc1c[nH]c2ccccc12)C(=O)N[C@@H](CC(C)C)C(=O)N[C@@H](CC(C)C)C(=O)N[C@@H](C)C(=O)N[C@@H](CCC(N)=O)C(=O)N[C@@H](CCCCN)C(=O)N1CCC[C@H]1C(=O)N[C@@H](CO)C(=O)N[C@@H](CO)C(=O)NCC(=O)N[C@@H](C)C(=O)N1CCC[C@H]1C(=O)N1CCC[C@H]1C(=O)N1CCC[C@H]1C(=O)N[C@@H](CO)C(=O)O)C(C)C
Consider B2, for which the “nM (Kb, Gaddum assay, cAMP)” value was 0.39 nM and the “pKb (Gaddum assay, cAMP)” value stood at 9.4.
